Assay results reported in publication PMC5862942, “JMJD5 is a human arginyl C-3 hydroxylase” (Nature Communications, 2018).
Where no end group is shown, it is not given here.

Target: N-terminally truncated JMJD5 (Jumonji-C domain-containing protein 5), wild type (human, UniProt Q8N371 183-416)
Test: cell-based or functional assay

Sequence of N-terminally truncated JMJD5 (Jumonji-C domain-containing protein 5), wild type (Q8N371 other isoform, or with tags, fused parts or gaps): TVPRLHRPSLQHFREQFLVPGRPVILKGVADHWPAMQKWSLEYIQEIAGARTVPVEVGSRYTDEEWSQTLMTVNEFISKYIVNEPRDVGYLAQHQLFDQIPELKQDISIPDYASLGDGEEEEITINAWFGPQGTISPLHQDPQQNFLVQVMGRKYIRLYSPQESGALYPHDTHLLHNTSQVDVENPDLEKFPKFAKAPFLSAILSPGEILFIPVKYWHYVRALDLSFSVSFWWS

## VPRRLGPKRASRIRKL-NH2 [40S ribosomal protein S6 (RPS6) peptide, residues 129-144]
  apparent Km of the RPS6 129-144 peptide in JMJD5-catalysed Arg137 hydroxylation (MALDI-MS-based assay, 37 °C): 60.4 µM
